Stoichiometry N data for one substance are collected here from doi:10.1101/2025.04.03.647111.

Assay [1] concerns the target HtpG from Synechococcus elongatus PCC 7942 (Synechococcus elongatus PCC 7942). Description: SEC. Background: SEC sorts molecules by how far they enter the pores of the column.
Assay [2] has the same target. Description: AUC.

With “HtpG from Synechococcus elongatus PCC 7942 (natural protein)”, the stoichiometry N in assay [1] and in assay [2] was 2 throughout.

For orientation: stoichiometry N means a count of units in the complex or per binding partner.
